One may read the Kd as the free concentration of one partner at which half of the binding sites on the other are occupied at equilibrium, for simple one-to-one binding. As a reminder, the kon is the rate constant with which the complex forms.

Where “and” joins values, the source holds several entries; their conditions need not be identical. Identical values can stand only once. Some results are limits rather than exact numbers.

The labels stand for the following.
B1: BEW-9D2-E8 (antibody, IgG2a, V domains shown)
VH: QIQLVQSGPELKKPGESVKISCKASGYTFTNYGMYWVKLAPGQGLQYLGWINTETGKPTYADDFKGRFVFFLETSASTAYLQINNLRNEDMATYFCARPSDYYDGFWFAYWGQGTLVTVSS
VL: DTVLTQSPALTVSPGERVSISCRASEWVNSYMHWYQQNPGQQPKLLIYKASNLASGVPARFSGSGSGTDFTLTLDPVEADDTATYFCQQSWNDPLTFGSGTKLEIK
B2: BEW-9E7-B4 (antibody, IgG2b, V domains shown)
VH: QIQLVQSGPELKKPGESVKISCKASGYTFTNYGMYWVKQAPGQGLQYMGWIDTETGKPTYADDFKGRFVFFLETSASTAYLQINNLRNEDMATYFCARWGYTSDYYYGWFPDWGQGTLVTVST
VL: DTVLTQSPALAVSPGERVSISCRASEGVNSYMHWYQQNPGQQPKLLIYKASNLASGVPARFSGSGSGTDFTLNIHPVEADDTATYFCQQNWNVPLTFGSGTKLEIK
B3: BEW-9E3-B9 (antibody, IgG2a, V domains shown)
VH: QIQLVQSGPELKKPGESVKISCKASGYTFTNYGMYWVKQAPGQGLQYMGWINTETGKPTYADDFKGRFVFFLETSASTAFLQINNLKNEDMATYFCARPSDYYDGFWFPYWGQGALVTVSS
VL: DTILTQSPALAVSPGERISISCRASEGVNSYMHWYQQNPGQQPKLLIYKASNLASGVPARFSGSGSGTDFTLTIDPVEADDTATYFCQQSWNDPLTFGSGTKLEIK
B4: BEW-1B4-C4 (antibody, IgG2b, V domains shown)
VH: QIQLVQSGPELKKPGESVKISCKASGYSFTNYGMYWVKQAPGQGLQYMGWIDTETGKPTYTDDFKGRFVFFLETSASTAYLQINNLKNEDMATYFCARWSGDTAGIRGPWFAYWGQGTLVTVSS
VL: DIRMTQSPASLSASLGETVNIECLASEDIYSDLAWYQQKPGKSPQLLIYNANDLQKGVPSRFSGSGSGTQYSLKINSLQSEDVATYFCQQYNYYPGTFGAGTKLELK
notes: Rat hybridoma monoclonal antibody
B5: BEW-9E10-E7 (antibody, IgG2a, V domains shown)
VH: QIQLLQSGPELKKPGESVKISCKASGYTFTNYGMYWVKQAPGQGLQYMGWIDTETGRPTYADDFKGRFVFFLETSASTAYLQINNLKNEDMATYFCARWSGDTTGIRGPWFAYWGQGTLVTVSS
VL: DIRMTQSPASLSASLGETVNIECLASEDIYSDLAWYQQKPGRSPQLLIYNANGLQNGVPSRFGGSGSGTQYSLKINSLQSEDVATYFCQQYNYFPGTFGAGTKLELK
B6: BEW-10H2-B9 (antibody, IgG2b, V domains shown)
VH: QIQLVQSGPELKKPGESVKISCKASGYSFTNFGLYWVKQAPGQGLQYMGWIDTETGKPTYADDFRGRFVFFLETSASTAYLQINNLKNEDMATYFCARVYGYPSWYFDFWGPGTMVTVSS
VL: DIQMTQSPASLSTSLEEIVTITCQASQDIDNYLSWYQQKPGKSPQLLIHSATSLADGVPSRFSGSRSGTQFSLKIHRLQVEDTGIYYCLQHFFPPWTFGGGTKLELK
B7: BDB-4G8-D4 (antibody, IgG2b, V domains shown)
VH: QIQLVQSGPELKKPGESVKISCKASGYTFTNYGMYWVKQAPGQGLQYMGWINTETGKPTYADDFKGRFVFFLETSASTAYLQINNLKNEDMATYFCARTNYYYRSYIFYFDYWGQGTMVTVSS
VL: DTVLTQSPALAVSPGERVSISCRASESVSTHMHWYQQKPGQQPKLLIYGASNLESGVPARFSGSGSGTDFTLTIDPVEADDTATYFCQQSWNDPFTFGAVTKLELK
B8: BED-4G10-C8 (antibody, IgG2b, V domains shown)
VH: QVQLQQSGTELVKPGSSVKISCKASGYTFTSNYMHWIRQQPGNGLEWIGWIYPGDGDTNYNHNFNGKATLTADKSSSTAYMQLSSLTSEDFAVYFCASSTRAIPGWFTYWGQGTLVTVSS
VL: DTVLTQSPALAVSPGERVSISCWASESVSTLMHWYQQKLGQQPKLLIYGASNLESGVPARFRGSGSGTDFTLTIDPVEADDTATYFCQQSWSDPYTFGAGTKLELK

T1 sequence (P15692 other isoform, or with tags, fused parts or gaps limits assumed): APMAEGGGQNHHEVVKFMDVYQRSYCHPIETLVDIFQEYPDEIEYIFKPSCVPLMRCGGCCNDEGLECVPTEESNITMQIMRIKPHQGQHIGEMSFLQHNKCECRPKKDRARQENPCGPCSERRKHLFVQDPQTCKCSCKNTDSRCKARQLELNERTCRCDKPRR

This test has as its target T1, Human VEGF-A 165 (human, UniProt P15692 207-395).
T1 construct: also called hVEGF165; huVEGF-A165
Briefly: Biacore SPR (Example 1.1). The protocol:
Unreacted moieties on the biosensor surface were blocked with ethanolamine. For kinetic analysis, rate equations derived from the 1:1 Langmuir binding model were fitted simultaneously to multiple antigen injections (using global fit analysis) with the use of Scrubber 2 (BioLogic Software), Biacore Biaevaluation 4.0.1 software or Biacore T100 Evaluation software. Purified antibodies or DVD-Ig molecules were diluted in running buffer for capture across goat anti-human Fc reaction surfaces. Antibodies or DVD-Ig molecules to be captured as a ligand (1 μg/ml) were injected over reaction matrices at a flow rate of 10 μl/minute. During the assay, all measurements were referenced against the capture surface alone (i.e., with no captured antibody or DVD-Ig molecule). […] The equilibrium dissociation constant KD (M) of the reaction between antibodies and the target antigen was then calculated from the kinetic rate constants by the following formula: KD=Koff/Kₒₙ. Binding was recorded as a function of time and kinetic rate constants were calculated. In this assay, on-rates as fast as 10⁶M⁻¹s⁻¹ and off-rates as slow as 10⁻⁶ s⁻¹ could be measured. […]
Background: SPR reads the build-up and loss of mass on a sensor chip optically.
As for B1, the equilibrium dissociation constant (Kd) was 14 pM and the kon worked out at 7e+06 M⁻¹ s⁻¹.

Regarding B2, binding was put at a Kd of 4.3 pM and the kon amounted to 5.9e+06 M⁻¹ s⁻¹.

B3: binding was put at a Kd of 14 pM and the kon was 6.7e+06 M⁻¹ s⁻¹.

On to B4, for which the dissociation constant Kd is 7.4 pM and the kon was 1.8e+07 M⁻¹ s⁻¹.

With B5, the dissociation constant Kd is 3.1 pM and the on-rate constant (kon) was found to be 1.3e+07 M⁻¹ s⁻¹.

Molecule B6 gave a Kd of 11 pM and a kon of 2.4e+07 M⁻¹ s⁻¹.

With B7, the Kd was ≤ 0.81 pM and 1.2 pM; the kon is ≥ 1e+07 M⁻¹ s⁻¹ and 1.4e+07 M⁻¹ s⁻¹.

For the molecule B8, the affinity, expressed as Kd, was 60 pM and the on-rate constant (kon) worked out at 1.8e+07 M⁻¹ s⁻¹.
